Legend:
Test in all cases: peptide or protein array
[1] = target: mitogen-activated protein kinase kinase 2 (MEK2) on the ProtoArray Human Protein Microarray (human, UniProt P36507 1-400)
[2] = target: casein kinase 1ε (CK1ε) on the ProtoArray Human Protein Microarray (human, UniProt P49674 1-416)
[3] = target: T1, chromosome 7 open reading frame 50 on the ProtoArray Human Protein Microarray (human, UniProt Q9BRJ6 1-194)
T1 sequence (looked up): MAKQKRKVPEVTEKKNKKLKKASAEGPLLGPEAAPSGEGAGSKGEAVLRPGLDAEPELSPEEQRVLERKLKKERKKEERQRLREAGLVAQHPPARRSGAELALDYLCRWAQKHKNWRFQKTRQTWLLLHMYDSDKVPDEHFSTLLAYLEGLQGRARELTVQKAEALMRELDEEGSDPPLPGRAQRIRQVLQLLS

[4] = target: carbonic anhydrase 1 on the ProtoArray Human Protein Microarray (human, UniProt P00915 1-261)
Sequence of carbonic anhydrase 1 on the ProtoArray Human Protein Microarray (P00915 whole entry): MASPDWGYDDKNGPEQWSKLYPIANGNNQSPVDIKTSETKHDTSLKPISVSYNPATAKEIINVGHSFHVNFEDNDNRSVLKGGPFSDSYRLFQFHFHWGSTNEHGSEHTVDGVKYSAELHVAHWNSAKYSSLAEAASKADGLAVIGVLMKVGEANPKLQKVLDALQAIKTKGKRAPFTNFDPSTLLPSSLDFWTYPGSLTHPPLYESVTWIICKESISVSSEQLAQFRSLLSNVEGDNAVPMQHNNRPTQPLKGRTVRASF

[5] = target: glycogen synthase kinase 3β (GSK3β) on the ProtoArray Human Protein Microarray (human, UniProt P49841 1-420)
Sequence of glycogen synthase kinase 3β (GSK3β) on the ProtoArray Human Protein Microarray (P49841 whole entry): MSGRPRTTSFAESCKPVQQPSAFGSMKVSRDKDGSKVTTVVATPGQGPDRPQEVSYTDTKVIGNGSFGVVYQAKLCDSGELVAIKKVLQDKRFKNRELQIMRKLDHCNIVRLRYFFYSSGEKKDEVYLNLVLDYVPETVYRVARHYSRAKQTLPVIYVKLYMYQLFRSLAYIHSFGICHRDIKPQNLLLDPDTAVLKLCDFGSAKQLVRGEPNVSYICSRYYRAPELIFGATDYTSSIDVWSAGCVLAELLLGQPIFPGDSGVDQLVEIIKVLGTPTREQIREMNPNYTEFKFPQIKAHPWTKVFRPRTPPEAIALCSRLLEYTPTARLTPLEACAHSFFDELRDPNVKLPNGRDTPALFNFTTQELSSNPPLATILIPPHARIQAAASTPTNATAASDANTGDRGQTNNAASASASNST

Sequence of casein kinase 1ε (CK1ε) on the ProtoArray Human Protein Microarray (P49674 whole entry): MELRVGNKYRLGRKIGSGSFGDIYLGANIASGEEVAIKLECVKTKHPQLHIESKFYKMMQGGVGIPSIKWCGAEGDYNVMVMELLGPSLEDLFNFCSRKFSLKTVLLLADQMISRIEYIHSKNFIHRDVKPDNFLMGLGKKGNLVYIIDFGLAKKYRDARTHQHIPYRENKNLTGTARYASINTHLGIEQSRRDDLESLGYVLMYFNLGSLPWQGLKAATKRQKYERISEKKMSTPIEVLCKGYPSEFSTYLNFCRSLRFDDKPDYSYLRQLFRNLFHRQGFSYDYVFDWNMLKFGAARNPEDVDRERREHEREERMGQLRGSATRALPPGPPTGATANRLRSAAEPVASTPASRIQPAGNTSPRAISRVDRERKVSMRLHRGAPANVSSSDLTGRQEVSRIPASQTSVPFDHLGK

binding result [1]: binds
binding result [2]: binds
binding result [3]: binds
binding result [4]: binds
binding result [5]: binds
B1: V5-SRGY (RBMY amino acid residues 227–374, 4 repeated SRGY box domains) (domain or fragment, human, UniProt P0DJD3-1 227-374, looked up)
chain: ETRDYAPPSRGYAYRDNGHSNRDEHSSRGYRNHRSSRETRDYAPPSRGHAYRDYGHSRRDESYSRGYRNRRSSRETREYAPPSRGHGYRDYGHSRRHESYSRGYRNHPSSRETRDYAPPHRDYAYRDYGHSSWDEHSSRGYSYHDGYG

Reference: PMC9672922 (Cellular and Molecular Gastroenterology and Hepatology, 2022)
